Target: T1, C1q (complement protein C1q, intact) (human, UniProt P02745 23-245; P02746 28-253; P02747 29-245)
T1 construct: complement C1q subunit A, human; C1q purified from human serum; a hexamer of heterotrimers; complement C1q subunit B, human; complement C1q subunit C, human; also called intact C1q; whole C1q; source: purified from human serum; copies: 6 + 6 + 6
Assay: SPR; BIAcore 3000; PR3 immobilised on a CM5 chip by amine coupling; C1q, gC1q or cC1q as soluble analytes; 50 mM Tris, 150 mM NaCl, 2 mM Ca2+, 0.005% surfactant P20, pH 7.4; flow 20 µl/min; global fit to a 1:1 Langmuir model; apparent KD from koff/kon
Conditions: both partners purified

T1 sequence (P02745 23-245, chain 1 of 3): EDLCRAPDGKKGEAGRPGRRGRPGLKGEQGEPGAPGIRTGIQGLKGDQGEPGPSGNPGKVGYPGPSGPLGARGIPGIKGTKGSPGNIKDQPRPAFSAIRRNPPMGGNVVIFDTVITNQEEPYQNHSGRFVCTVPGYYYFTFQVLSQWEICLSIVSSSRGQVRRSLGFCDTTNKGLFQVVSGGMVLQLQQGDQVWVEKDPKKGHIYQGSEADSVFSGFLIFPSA
T1 sequence (P02746 28-253, chain 2 of 3): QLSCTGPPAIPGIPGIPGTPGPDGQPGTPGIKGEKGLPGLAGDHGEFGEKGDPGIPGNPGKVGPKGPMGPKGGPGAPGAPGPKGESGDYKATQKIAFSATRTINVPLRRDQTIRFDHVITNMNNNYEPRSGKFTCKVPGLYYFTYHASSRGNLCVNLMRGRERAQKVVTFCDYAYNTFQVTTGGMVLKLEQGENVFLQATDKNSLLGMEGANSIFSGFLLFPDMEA
T1 sequence (P02747 29-245, chain 3 of 3): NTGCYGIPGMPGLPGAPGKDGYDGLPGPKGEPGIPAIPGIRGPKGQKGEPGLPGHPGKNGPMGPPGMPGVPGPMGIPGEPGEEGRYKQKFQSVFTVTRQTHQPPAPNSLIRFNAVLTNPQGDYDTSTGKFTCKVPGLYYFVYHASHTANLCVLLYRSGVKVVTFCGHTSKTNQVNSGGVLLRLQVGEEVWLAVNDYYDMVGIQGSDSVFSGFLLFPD

Kd: 190 nM | koff: 0.00151 s⁻¹ | kon: 7800 M⁻¹ s⁻¹
B1: Proteinase 3 (PR3), purified (enzyme, UniProt P24158 28-248, looked up)
chain: IVGGHEAQPHSRPYMASLQMRGNPGSHFCGGTLIHPSFVLTAAHCLRDIPQRLVNVVLGAHNVRTQEPTQQHFSVAQVFLNNYDAENKLNDVLLIQLSSPANLSASVATVQLPQQDQPVPHGTQCLAMGWGRVGAHDPPAQVLQELNVTVVTFFCRPHNICTFVPRRKAGICFGDSGGPLICDGIIQGIDSFVIWGCATRLFPDFFTRVALYVDWIRSTLR
notes: proteinase 3 (myeloblastin), neutrophil-derived serine protease; also called purified PR3; immobilized PR3; source: bought: Athens Research and Technology

Reference: publication PMC5932363, “Proteinase 3 Interferes With C1q-Mediated Clearance of Apoptotic Cells” (Frontiers in Immunology, 2018)
